Measured values as given in the supplement of paper PMC9170038.

System: MS2 coat protein
Test: apparent KD of MS2 coat protein; higher = weaker reporter binding
Settings: Eterna round: R107
Summary of the method: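 For every design, apparent KD is the median of normalised binding-curve fits from its clusters. The RNA switches were transcribed on-chip from Illumina sequencing clusters and titrated with SNAP-549-labelled MS2 coat protein (twofold steps, 0.7 or 1.5 nM to 3 µM; 0.8–1.5 h to 10–20 min per step). Titrations used 100 mM Tris-HCl pH 7.5, 80 mM KCl, 4 mM MgCl2, without or with constant ligand.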

[1] = input ligand: theophylline 20 uM
[2] = input ligand: theophylline 2 mM
[3] = input ligand: tryptophan 2.4 mM

Row | Sequence | apparent KD of MS2 coat protein (input ligand: arginine 13.2 mM) [nM] | apparent KD of MS2 coat protein (input ligand: none) [nM] | apparent KD of MS2 coat protein [1] [nM] | apparent KD of MS2 coat protein [2] [nM] | apparent KD of MS2 coat protein [3] [nM]
1 | CUCAUCCACGCGGCCGCCACUACUUGUAGGUGUGGGUGUGUUGUGUUACAUGAGGAUCACCCAUGUAGGACCGGGCGUGGAUGAG [Whale] | 53.9 | 62.7 | 85.6 | 83.8 | 213
2 | UAUACAUGGUAUAAAUAUAUAUAUAAGAAACGAGGACCGGUACGGCCGCCACUCGUGCCGGAAACAUGAGGAUCACCCAUGUAUU [AK1 Exclusion TrypA mod IceBolt] | 21 | – | 39.3 | 49.6 | –
3 | CCUCGACAUGAGGAUCACCCAUGUAGAGAUACCAGCCUGUGAGAUGGCCCUUGGCAGCUCAUAUAGGGUACAGGAGUCGUUUUGA [Qugetila] | 23.5 | – | 63.2 | – | 23.9
4 | CAAUAAGUAACUGAUACCAGUGUACUGACAUGAGGAUCACCCAUGUUGGGUUUUGUUGUACACCCUUGGCAGCAGAAUCUUAUUG [AstrosExyTheB#12] | 44.2 | – | 67.2 | – | 55.4
5 | AAUAACAUGAGGAUCACCCAUGUAAAAGAUACCAGAGUGAUGAUCCUCCCUUGGCAGCUUAAACGCUAUUGAUUACAAUAGCGAA [Mat - Same State Theophlline A - Mod of Eli - D2] | 29.8 | – | 114 | – | 28.6
6 | UGUGUUGUCCGAAGGAGCGGGACCUAAUAGUGGUAACAUGAGGAUCACCCAUGUAUUUCGUCCCAGGUAGGUCGCGGACAGUGUA [ArgiB-ms2@36] | 19 | 20.7 | 32.2 | 25.1 | 21.7
7 | GUGGCGAUCACGGCCGCCACUGAGCAGGUCGAGCUUGACAUGAGGAUCACCCAUGUCUGACGAUACAGGACCGGGUGAUCUCCGC [Titiinanon] | 16.5 | 21.7 | 94.6 | 149 | 19.7
8 | ACAUGAGGAUCACCCAUGUAAGAUUCAGAAGGAGCGGGAAAUAACCCAGGUAGGUCGCUGAAGUUUGGUUUAUUGUGUUCGUGAA [#07 Exclusion - Arginine A] | 10.2 | 10.4 | 13.3 | 11.5 | 11.5
9 | CAUAAUUUAUCCUAUAAAACUAUUAGUGAUACCAGCACCUCAUGAUGCCCUUGGCAGCACUUACAUGAGGAUCACCCAUGUUUUA [JR_NU_SSTheophyA_Sub029] | 99.6 | – | 223 | – | 158
10 | AGCGCAUCCGUAUAGGAUGCGCUCCAUGAAGGAGCGCGGGAAACCGCAGGUAGGUCGCGUGACAUGAGGAUCACCCAUGUGUAUU [#17 Same State - Arginine A] | 16.9 | 20 | 27.7 | 22.8 | 20.9
11 | AGUCUUAGUGGAAGGAGCGCAGUCAUAACAUGAGGAUCACCCAUGUCGAGGUGAGGGUCAUUGCAGGUAGGUCGCCAUAAUAGGA [#16 Same State - Arginine B] | 19.3 | 156 | 355 | 322 | 369
12 | AAAACAUGAGGAUCACCCAUGUGGUGAGAAGGAGCGUCGGAAAUGACAGGUAGGUCGCUUAUCCGUAAGUAUUAGUGUUAGUACA [SSArg A #1] | 140 | 280 | 290 | 388 | 335
13 | AGACAUGAGGAUCACCCAUGUAGCAUGGAUACCAGAUGUAGAUUUAUCCCUUGGCAGCUGUGGUAAAGUGAUGCAUUGCUCCUAG [Exclusion - Theophylline A (Freestyle 5)] | 28.5 | – | 50.1 | – | 34
14 | GGUUACUCUACGGCCGCCACUGUAAUGUAAAGAUUCCUGUACAUGACAUGAGGAUCACCCAUGUGCAGGACCGGGUAGUGUAACC [Tryptophan B 20] | 126 | – | 208 | 225 | –
15 | ACUGGAGGUGGAAGGAGCGGGAGACAUGAGCAUCACAUGAGGAUCACCCAUGUAGGAUCAUCCCAGGUAGGUCGCCAUGUCGAAA [rtfemullin] | 120 | 276 | 292 | 431 | 189
16 | AACAUGAGGAUCACCCAUGUCUGAACUGAAGGAGCGCUAAAUAAGGCAGGUAGGUCGCGGAAUUUUGUAUAUAUAUAUAUAUGGG [9.F] | 6.01 | 27.7 | 28.5 | 25 | 20.3
